Test results: paper PMC12846707, “Structural and Functional Analysis of Porcine CR1-like Proteins in C4b-Mediated Immune Responses” (Veterinary Sciences, 2025)

B1: Recombinant C4b α chain (domain or fragment)
chain: AMELLQEEELIEEDDIPVRSFFPENWLWRVEEVPHSLQLSLLLPDSLTTWEIHGVSLSKSTGLCVATPARVRVFREFHLHLRLPVSIHRFEQLELRPVLYNYLDKDVPVSVHVSPVEGLCLAGGGGLAQQVLVPAGSARPVGFSVVPISAAAVSLKVVARGSFDFPVGDAVSKILQIANEGAIHQEELVYALNPQNVLGRNLEIPGHSDPNVIPDGDFRSFVRLTASDPLDTLGSEGALSPGGLASLLRLPRGCAEQTMFYLAPTLAASRYLDKTEQWSTLPPETKDHAVDLIQKGYTRIQEFRKNDGSYGAWLHRESSTWLTAFVLKVLSLAQEQVGGSPEKLQETAAWLLLQQKEDGSFHDPCPVIHRDMQGGLVGNDEKVALTAFVVIALHHGLAVFQDRNAEQFKRVENAISTANDFLGEKVSSGLLGSHAAAISAYALSLSGAPEQLQDIAHNNLMAMAQKIGDHLFWGTVPSSQSNTLSPTPAPQRPTDPMPQAPALWIETTAYALLHLLIREGKAEMADQTASWLTRQGSYKGGFRSTQDTVIALDALSAYWILSHTTEEKELNVTLSSMSRGGFKSHVVRLTNHQVKGLEEELQFSLGSKINVKVGGNSKGTLKILRAYNVIDLKNTTCQDLQIEVTVKGHVEYMLEANEDYEEYEYEDLPAQDDPGAHSQPVTPLQLFDG
B2: Recombinant CR1-like CCPs 1-3 (domain or fragment)
chain: not shown

Experiments:
Assay in all cases: SPR; Biacore 8K, single-cycle; C4bα and C4bβ covalently immobilised on CM5 chip (about 1500 RU); CR1-like fragments or mutant as mobile phase, 1.56 × 10^-2 to 4 μM; 25 °C; 10 mM HEPES pH 7.4, 150 mM NaCl, 0.05% Tween-20; apparent KD = kd/ka
Conditions in all cases: both partners purified
[1] = target: T1, Recombinant CR1-like CCPs 12-14 (pig)
T1 construct: porcine CR1-like, CCP domains 12-14; Section 2.12 describes 6His-sumo (N-terminal) and flag (C-terminal) tags and insect cells for 'CR1-like fragments' in general

Recombinant C4b α chain = target: B1
Recombinant C4b β chain = target: T2, Recombinant C4b β chain (pig)
T2 construct: beta chain of porcine complement C4b, expressed as a separate chain; source: Escherichia coli (pET28a), purified (Ni-NTA, SP-HP cation exchange); not shown: 6His, N-terminal, kept; Flag-ppase, N-terminal, kept

Row | Binder | Kd [1] [nM] | Kd (Recombinant C4b α chain) [nM] | Kd (Recombinant C4b β chain) [nM]
1 | B1 | 317 |  | 
2 | B2 |  | 226 | 173
